# Experimental data published in the RNAGym collection of RNA variant scans (doi:10.7554/elife.80360).
# B1: HDV Ribozyme (parent)
# chain: GGCCGGCAUGGUCCCAGCCUCCUCGCUGGCGCCGGCUGGGCAACAUUCCGAGGGGACCGUCCCCUCGGUAAUGGCGAAUGGGACCCA
# Variants of: B1
# Experiment: self-cleavage, relative activity (ratio to wild type); higher = more cleavage; co-transcriptional
row,Variant,self-cleavage
1,C14A C24U,0.0361
2,G5A G80C,0.0563
3,C13U U37G,0.138
4,C22G C44G,0.0437
5,A43U A56U,0.475
6,C33U U69C,0.956
7,A45U C63U,0.856
8,U37C G67A,1
9,C7U G29U,0.157
10,G10A C36A,0.0687
11,C18U C62A,0.599
12,G39C G50U,0.345
13,G67A C86G,0.895
14,A8C G50U,0.864
15,C3G C7A,0.0213
16,G5C C41G,0
17,C18A G55A,0.0314
18,A78G A87C,0.452
19,U9A A77U,0.506
20,A43U U65A,0.584
21,A8C C18G,0.0875
22,C33G C36G,0.128
23,G17C C61U,0.383
24,U65A U79A,0.727

row,Variant,self-cleavage
1,C15U A77G,1.14
2,G10C C21A,0.0723
3,C22U G54C,0.641
4,A43C G74A,0.509
5,C44G U60C,0.569
6,U65C G68A,0.959
7,C3G G38U,0.166
8,A16G C58G,0.776
9,A16G G80A,0.243
10,G52A A78C,0.347
11,C19A G29C,0.0941
12,G76A G80U,0.441
13,C36U C61A,0.831
14,C30A G54U,0.5
15,C13U C63U,0.696
16,C19U C64U,0.148
17,C7A G25A,0.175
18,G80A A83G,0.396
19,A42U A45G,0.237
20,C18A A43G,0.192
21,C18G C61A,0.222
22,C4U C85G,0.935
23,G2C G17A,0
24,U60C C75G,0.128

row,Variant,self-cleavage
1,G5U G31A,0.135
2,G50U C57G,0.986
3,G40C A71U,0.228
4,U47A C85U,1.03
5,C33G G34C,0
6,G1U G39U,0.337
7,C13U A70U,0.342
8,G11A G52C,0.521
9,A8U C22U,0.598
10,G40U U72C,0.176
11,C41A U46A,0.7
12,C7A C85U,0.807
13,G67U A83U,0.469
14,C26U C86U,0.831
15,C14G U46G,0.237
16,C19U G39U,0.0449
17,A42U C58U,0.271
18,U46A A56C,0.802
19,G10U G53C,0.773
20,C3U A43G,0.342
21,G6C U79C,0.0405
22,C4G A87G,0.0715
23,G29A G39A,0.0863
24,C3G C57G,0.891

row,Variant,self-cleavage
1,G17U G35C,0.125
2,C32U G39A,0.192
3,C33U A56C,0.658
4,U12G C13U,0.931
5,G2A C22U,0.0183
6,C18A U79A,0.138
7,U60A C84A,0.911
8,C33U C85A,0.831
9,G50A A70U,1.05
10,C62G A78G,0.745
11,C14A G54C,0.536
12,G10C U79A,0.277
13,G1C G52A,0.166
14,A16U G54U,0.771
15,C14G A45G,0.0875
16,G5U G38C,0.0875
17,U27G A87G,0.774
18,C36A C41A,0.102
19,A70U G80A,0.445
20,G10U,0.776
21,A16G U20G,0.145
22,G28U U79C,0.0707
23,G34U C49G,0.166
24,G17A C32A,0.0852

row,Variant,self-cleavage
1,C19A A83G,0.122
2,G10U C13G,0
3,C22U C33A,0.0692
4,U37G U79C,0
5,C15U C21A,0
6,U20G A43U,0.107
7,G1C C26A,0.166
8,U23G A51U,0.705
9,G11C G73C,0.0346
10,G38C U72A,0.158
11,A45G C62G,0.587
12,G38U C57G,0.38
13,U27G U72G,0.978
14,U47C G67C,0.59
15,G10A G50U,0.67
16,G5A C84A,0.172
17,G5U U60G,0.151
18,C7U A71G,0.931
19,C48A C66G,0.831
20,G39A A70U,0.496
21,C7U G82U,0.0678
22,G5U A42G,0.249
23,U60G A71U,0.918
24,A56U C58U,0.985

row,Variant,self-cleavage
1,G2A A78U,0.0674
2,U27C C49G,0.962
3,C7U U65G,0.856
4,G34C G52C,0.267
5,C3G C21G,0
6,G5A G6C,0.0536
7,U20C G39U,0.0386
8,G55U G68C,0.744
9,C44G G81U,0.271
10,G5A A16C,0.166
11,C66A G67C,0.845
12,C22A G35A,0.0386
13,A42C C48A,0.361
14,U72A G76U,0.863
15,C26U C36G,0.162
16,A70U G81A,0.332
17,C7A C75U,0.131
18,C13A C15U,0.185
19,U69C G74U,0.575
20,A8U U69G,0.59
21,G28C G59U,0.0678
22,G1A G10C,0.35
23,C66A C84U,0.696
24,A16U G81U,0.554

row,Variant,self-cleavage
1,G6A G29A,0.0959
2,C32G U79C,0.0205
3,C22G A43U,0.115
4,G11A G17U,0.251
5,G38C C57G,0.356
6,A56U G68U,1.01
7,C61A G76C,1.08
8,C18G C32A,0.166
9,C62A G67U,0.464
10,U12C G59C,0.415
11,C44G G55U,0.65
12,C21G U46G,0.0978
13,U20C A78C,0.0449
14,G52C C58U,1.24
15,C48U U79C,0.45
16,C41U G50C,0.67
17,A45U U79A,0.192
18,G17A G28A,0
19,C3A A56G,0.632
20,U20A A71U,0.0504
21,G25A C33U,0.0911
22,G10C A43C,0.219
23,A71U A87C,0.913
